The results in this text go back to IntAct's records for PubMed 29892012.

Sequences and labels used below:
B1: Coiled-coil alpha-helical rod protein 1 (Homo sapiens), Q8TD31 (parent)
chain: MFPPSGSTGLIPPSHFQARPLSTLPRMAPTWLSDIPLVQPPGHQDVSERRLDTQRPQVTMWERDVSSDRQEPGRRGRSWGLEGSQALSQQAEVIVRQLQELRRLEEEVRLLRETSLQQKMRLEAQAMELEALARAEKAGRAEAEGLRAALAGAEVVRKNLEEGSQRELEEVQRLHQEQLSSLTQAHEEALSSLTSKAEGLEKSLSSLETRRAGEAKELAEAQREAELLRKQLSKTQEDLEAQVTLVENLRKYVGEQVPSEVHSQTWELERQKLLETMQHLQEDRDSLHATAELLQVRVQSLTHILALQEEELTRKVQPSDSLEPEFTRKCQSLLNRWREKVFALMVQLKAQELEHSDSVKQLKGQVASLQEKVTSQSQEQAILQRSLQDKAAEVEVERMGAKGLQLELSRAQEARRRWQQQTASAEEQLRLVVNAVSSSQIWLETTMAKVEGAAAQLPSLNNRLSYAVRKVHTIRGLIARKLALAQLRQESCPLPPPVTDVSLELQQLREERNRLDAELQLSARLIQQEVGRAREQGEAERQQLSKVAQQLEQELQQTQESLASLGLQLEVARQGQQESTEEAASLRQELTQQQELYGQALQEKVAEVETRLREQLSDTERRLNEARREHAKAVVSLRQIQRRAAQEKERSQELRRLQEEARKEEGQRLARRLQELERDKNLMLATLQQEGLLSRYKQQRLLTVLPSLLDKKKSVVSSPRPPECSASAPVAAAVPTRESIKGSLSVLLDDLQDLSEAISKEEAVCQGDNLDRCSSSNPQMSS
B2: Liprin-alpha-1 (Homo sapiens), Q13136 (parent)
chain: MMCEVMPTISEAEGPPGGGGGHGSGSPSQPDADSHFEQLMVSMLEERDRLLDTLRETQETLALTQGKLHEVGHERDSLQRQLNTALPQEFAALTKELNVCREQLLEREEEIAELKAERNNTRLLLEHLECLVSRHERSLRMTVVKRQAQSPAGVSSEVEVLKALKSLFEHHKALDEKVRERLRVALERCSLLEEELGATHKELMILKEQNNQKKTLTDGVLDINHEQENTPSTSGKRSSDGSLSHEEDLAKVIELQEIISKQSREQSQMKERLASLSSHVTELEEDLDTARKDLIKSEEMNTKLQRDVREAMAQKEDMEERITTLEKRYLAAQREATSVHDLNDKLENEIANKDSMHRQTEDKNRQLQERLELAEQKLQQTLRKAETLPEVEAELAQRVAALSKAEERHGNIEERLRQMEAQLEEKNQELQRARQREKMNEEHNKRLSDTVDKLLSESNERLQLHLKERMAALEDKNSLLREVESAKKQLEETQHDKDQLVLNIEALRAELDHMRLRGASLHHGRPHLGSVPDFRFPMADGHTDSYSTSAVLRRPQKGRLAALRDEPSKVQTLNEQDWERAQQASVLANVAQAFESDADVSDGEDDRDTLLSSVDLLSPSGQADAHTLAMMLQEQLDAINKEIRLIQEEKENTEQRAEEIESRVGSGSLDNLGRFRSMSSIPPYPASSLASSSPPGSGRSTPRRIPHSPAREVDRLGVMTLLPPSREEVRDDKTTIKCETSPPSSPRALRLDRLHKGALHTVSHEDIRDIRNSTGSQDGPVSNPSSSNSSQDSLHKAPKKKGIKSSIGRLFGKKEKGRPGQTGKEALGQAGVSETDNSSQDALGLSKLGGQAEKNRKLQKKHELLEEARRQGLPFAQWDGPTVVVWLELWVGMPAWYVAACRANVKSGAIMSALSDTEIQREIGISNPLHRLKLRLAIQEIMSLTSPSAPPTSRTTLAYGDMNHEWIGNEWLPSLGLPQYRSYFMECLVDARMLDHLTKKDLRGQLKMVDSFHRNSFQCGIMCLRRLNYDRKELERKREESQSEIKDVLVWSNDRVIRWILSIGLKEYANNLIESGVHGALLALDETFDFSALALLLQIPTQNTQARAVLEREFNNLLVMGTDRRFDEDDDKSFRRAPSWRKKFRPKDIRGLAAGSAETLPANFRVTSSMSSPSMQPKKMQMDGNVSGTQRLDSATVRTYSC

Variants of B1 are the subject of one assay. The following applies: with nutm1_human NUTM1, Q86Y26.
nutm1_human NUTM1, Q86Y26, sequence (Q86Y26 whole entry): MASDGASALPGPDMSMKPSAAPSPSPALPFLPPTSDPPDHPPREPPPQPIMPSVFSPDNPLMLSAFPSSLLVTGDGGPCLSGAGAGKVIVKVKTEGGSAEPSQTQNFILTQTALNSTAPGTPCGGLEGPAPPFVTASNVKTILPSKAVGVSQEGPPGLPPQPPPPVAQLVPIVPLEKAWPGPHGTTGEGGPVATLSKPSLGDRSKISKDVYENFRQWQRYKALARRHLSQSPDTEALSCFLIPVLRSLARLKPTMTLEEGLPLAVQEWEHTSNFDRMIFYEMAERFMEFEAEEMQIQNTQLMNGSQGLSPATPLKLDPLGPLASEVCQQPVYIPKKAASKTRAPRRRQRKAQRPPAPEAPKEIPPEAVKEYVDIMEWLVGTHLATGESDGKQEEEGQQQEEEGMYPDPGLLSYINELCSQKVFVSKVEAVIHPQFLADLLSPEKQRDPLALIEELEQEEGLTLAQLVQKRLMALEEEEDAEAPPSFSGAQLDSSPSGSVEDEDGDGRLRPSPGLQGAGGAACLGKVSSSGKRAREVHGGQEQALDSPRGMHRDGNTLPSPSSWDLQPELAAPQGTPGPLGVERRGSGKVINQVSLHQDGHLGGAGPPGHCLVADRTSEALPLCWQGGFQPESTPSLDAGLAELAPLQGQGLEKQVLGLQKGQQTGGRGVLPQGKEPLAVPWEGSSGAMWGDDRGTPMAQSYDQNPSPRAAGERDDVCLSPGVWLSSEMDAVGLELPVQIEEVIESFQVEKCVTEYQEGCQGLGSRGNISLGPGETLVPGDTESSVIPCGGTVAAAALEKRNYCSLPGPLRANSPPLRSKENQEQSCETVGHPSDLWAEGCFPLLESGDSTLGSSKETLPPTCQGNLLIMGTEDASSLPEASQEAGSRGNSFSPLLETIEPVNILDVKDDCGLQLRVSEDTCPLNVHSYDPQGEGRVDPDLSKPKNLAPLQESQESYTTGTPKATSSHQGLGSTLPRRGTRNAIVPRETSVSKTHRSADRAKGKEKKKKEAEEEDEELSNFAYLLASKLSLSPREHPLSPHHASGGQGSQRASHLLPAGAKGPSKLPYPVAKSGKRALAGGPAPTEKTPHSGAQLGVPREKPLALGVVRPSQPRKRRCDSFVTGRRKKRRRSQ
Consider W337R, for which the “effect of a mutation on the interaction” value was “disrupting interaction strength”.

The variants in the next assay derive from B1. The following applies: with tekt1_human TEKT1, Q969V4.
tekt1_human TEKT1, Q969V4, sequence (Q969V4 whole entry): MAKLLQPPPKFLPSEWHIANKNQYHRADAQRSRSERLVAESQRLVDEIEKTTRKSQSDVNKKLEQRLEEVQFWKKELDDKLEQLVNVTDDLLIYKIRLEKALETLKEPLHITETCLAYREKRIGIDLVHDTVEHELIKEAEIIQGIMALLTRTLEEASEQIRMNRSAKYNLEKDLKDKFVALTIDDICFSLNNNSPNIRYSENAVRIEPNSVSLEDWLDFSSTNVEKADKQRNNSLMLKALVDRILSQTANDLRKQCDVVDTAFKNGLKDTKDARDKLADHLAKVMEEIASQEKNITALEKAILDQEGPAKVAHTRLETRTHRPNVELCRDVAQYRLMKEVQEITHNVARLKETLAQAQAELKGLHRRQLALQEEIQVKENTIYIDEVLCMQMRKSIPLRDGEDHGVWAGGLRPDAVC
For W337R, the “effect of a mutation on the interaction” value is given as “disrupting interaction strength”.

Variants of B1 are the subject of another assay. The following applies: with amol2_human AMOTL2, Q9Y2J4.
Regarding W337R, the “effect of a mutation on the interaction” value is “disrupting interaction strength”.

The next assay covers variants of B1. As to conditions: with k1h1_human KRT31, Q15323.
On to W337R, for which the “effect of a mutation on the interaction” value is given as “with no effect”.

Another assay covers variants of B1. The following applies: with abi2_human ABI2, Q9NYB9.
abi2_human ABI2, Q9NYB9, sequence (Q9NYB9 whole entry): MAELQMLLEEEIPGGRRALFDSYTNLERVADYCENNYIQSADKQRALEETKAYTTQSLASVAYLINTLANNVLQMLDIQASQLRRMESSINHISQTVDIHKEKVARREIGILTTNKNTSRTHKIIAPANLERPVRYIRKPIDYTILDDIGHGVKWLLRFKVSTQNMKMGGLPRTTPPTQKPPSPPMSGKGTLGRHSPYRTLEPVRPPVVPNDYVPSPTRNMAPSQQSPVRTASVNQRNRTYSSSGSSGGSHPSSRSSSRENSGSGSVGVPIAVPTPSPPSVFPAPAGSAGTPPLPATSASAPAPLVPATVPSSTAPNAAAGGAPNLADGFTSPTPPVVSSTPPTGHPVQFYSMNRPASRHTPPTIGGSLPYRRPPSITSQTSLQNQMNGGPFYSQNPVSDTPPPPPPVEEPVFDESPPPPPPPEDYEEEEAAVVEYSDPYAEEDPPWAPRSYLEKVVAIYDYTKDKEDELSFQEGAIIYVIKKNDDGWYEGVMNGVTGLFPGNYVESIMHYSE
In the case of W337R, the “effect of a mutation on the interaction” value is “disrupting interaction strength”.

The variants in a further assay derive from B1. The following applies: with txlnb_human TXLNB.
Consider W337R, for which the “effect of a mutation on the interaction” value was “disrupting interaction strength”.

In another assay the parent is B1. The following applies: with ndc80_human NDC80, O14777.
For the variant W337R, the “effect of a mutation on the interaction” value was “disrupting interaction strength”.

The variants in the next assay derive from B1. The following applies: with tpm3_human TPM3, P06753.
tpm3_human TPM3, P06753, sequence (P06753 whole entry): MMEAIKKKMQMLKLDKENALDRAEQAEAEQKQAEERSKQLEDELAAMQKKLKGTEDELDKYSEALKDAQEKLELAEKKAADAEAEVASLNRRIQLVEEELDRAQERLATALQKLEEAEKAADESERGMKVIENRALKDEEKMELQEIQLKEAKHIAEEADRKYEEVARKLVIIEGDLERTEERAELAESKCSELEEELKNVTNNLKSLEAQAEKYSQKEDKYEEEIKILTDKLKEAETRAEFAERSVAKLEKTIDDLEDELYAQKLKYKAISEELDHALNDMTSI
In the case of W337R, the “effect of a mutation on the interaction” value is recorded as “disrupting interaction strength”.

Another assay covers variants of B1. As to conditions: with KRT15, P19012.
On to W337R, for which the “effect of a mutation on the interaction” value was “with no effect”.

The variants in a further assay derive from B1. As to conditions: with atg5_human ATG5, Q9H1Y0.
W337R: the “effect of a mutation on the interaction” value is reported as “disrupting interaction strength”.

In a further assay the parent is B1. As to conditions: with cc136_human CCDC136, Q96JN2.
cc136_human CCDC136, Q96JN2, sequence (Q96JN2 whole entry): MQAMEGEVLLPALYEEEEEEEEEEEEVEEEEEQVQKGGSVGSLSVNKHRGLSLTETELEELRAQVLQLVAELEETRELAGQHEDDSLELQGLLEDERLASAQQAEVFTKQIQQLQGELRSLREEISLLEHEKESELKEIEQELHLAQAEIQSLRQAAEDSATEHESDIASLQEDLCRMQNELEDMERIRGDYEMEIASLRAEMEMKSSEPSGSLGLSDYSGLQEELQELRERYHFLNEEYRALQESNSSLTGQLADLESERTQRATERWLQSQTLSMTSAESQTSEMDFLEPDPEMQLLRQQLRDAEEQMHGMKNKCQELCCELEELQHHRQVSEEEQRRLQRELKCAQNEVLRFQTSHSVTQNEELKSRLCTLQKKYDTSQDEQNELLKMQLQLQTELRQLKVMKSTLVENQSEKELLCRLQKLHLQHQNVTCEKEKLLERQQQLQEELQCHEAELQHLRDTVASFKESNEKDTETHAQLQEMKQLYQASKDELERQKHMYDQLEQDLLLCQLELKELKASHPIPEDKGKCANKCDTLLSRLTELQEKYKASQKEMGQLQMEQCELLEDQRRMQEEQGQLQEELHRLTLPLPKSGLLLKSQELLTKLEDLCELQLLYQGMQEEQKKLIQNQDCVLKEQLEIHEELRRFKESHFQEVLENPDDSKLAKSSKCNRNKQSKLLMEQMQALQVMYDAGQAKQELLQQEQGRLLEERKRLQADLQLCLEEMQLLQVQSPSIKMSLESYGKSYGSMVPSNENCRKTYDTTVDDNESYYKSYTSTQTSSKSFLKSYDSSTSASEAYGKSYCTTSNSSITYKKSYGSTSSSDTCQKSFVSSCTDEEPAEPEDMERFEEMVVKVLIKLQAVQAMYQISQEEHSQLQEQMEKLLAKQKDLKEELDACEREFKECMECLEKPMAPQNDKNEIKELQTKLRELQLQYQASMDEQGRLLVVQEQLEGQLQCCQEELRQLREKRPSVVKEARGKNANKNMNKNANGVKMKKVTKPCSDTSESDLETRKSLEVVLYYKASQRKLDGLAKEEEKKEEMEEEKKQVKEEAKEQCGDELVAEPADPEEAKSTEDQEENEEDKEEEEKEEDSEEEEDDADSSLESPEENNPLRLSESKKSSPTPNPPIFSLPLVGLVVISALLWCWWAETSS
As to W337R, the “effect of a mutation on the interaction” value is on record as “with no effect”.

The variants in the next assay derive from B1. As to conditions: with nup62_human NUP62, P37198.
Consider W337R, for which the “effect of a mutation on the interaction” value is given as “with no effect”.

Variants of B1 are the subject of a further assay. The following applies: with tsg10_human TSGA10, Q9BZW7.
tsg10_human TSGA10, Q9BZW7, sequence (Q9BZW7 whole entry): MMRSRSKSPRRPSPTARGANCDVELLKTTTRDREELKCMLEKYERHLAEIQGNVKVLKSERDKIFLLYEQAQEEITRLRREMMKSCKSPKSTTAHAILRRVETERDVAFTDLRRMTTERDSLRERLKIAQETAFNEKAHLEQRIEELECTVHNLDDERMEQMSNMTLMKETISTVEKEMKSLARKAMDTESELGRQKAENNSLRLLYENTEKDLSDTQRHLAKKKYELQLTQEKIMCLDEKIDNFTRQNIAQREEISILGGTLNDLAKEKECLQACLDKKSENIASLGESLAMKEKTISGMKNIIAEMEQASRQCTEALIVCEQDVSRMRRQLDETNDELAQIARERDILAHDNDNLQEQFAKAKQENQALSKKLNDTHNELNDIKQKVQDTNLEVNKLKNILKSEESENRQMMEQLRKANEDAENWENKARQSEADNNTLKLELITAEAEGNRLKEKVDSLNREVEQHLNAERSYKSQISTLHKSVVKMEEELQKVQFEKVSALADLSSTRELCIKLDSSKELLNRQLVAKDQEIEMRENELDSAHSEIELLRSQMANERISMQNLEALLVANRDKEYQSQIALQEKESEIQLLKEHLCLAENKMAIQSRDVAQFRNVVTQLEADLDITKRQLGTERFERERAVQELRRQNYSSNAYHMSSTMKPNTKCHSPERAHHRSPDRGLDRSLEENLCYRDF
Take W337R: the “effect of a mutation on the interaction” value is recorded as “disrupting interaction strength”.

The variants in another assay derive from B1. As to conditions: with anchr_human ZFYVE19, Q96K21.
In the case of W337R, the “effect of a mutation on the interaction” value is recorded as “disrupting interaction strength”.

The variants in another assay derive from B1. As to conditions: with sat1_human SAT1, P21673.
sat1_human SAT1, P21673, sequence (P21673 whole entry): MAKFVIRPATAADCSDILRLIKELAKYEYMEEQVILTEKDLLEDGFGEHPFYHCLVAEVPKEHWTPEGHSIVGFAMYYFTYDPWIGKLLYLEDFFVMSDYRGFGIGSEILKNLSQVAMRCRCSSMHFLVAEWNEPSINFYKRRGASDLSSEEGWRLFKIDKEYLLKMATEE
In the case of W337R, the “effect of a mutation on the interaction” value was “disrupting interaction strength”.

The next assay covers variants of B1. The following applies: with ndk7_human NME7, Q9Y5B8.
With W337R, the “effect of a mutation on the interaction” value is listed as “with no effect”.

Variants of B1 are the subject of a further assay. As to conditions: with txlna_human TXLNA.
Target sequence in this assay (P40222 whole entry): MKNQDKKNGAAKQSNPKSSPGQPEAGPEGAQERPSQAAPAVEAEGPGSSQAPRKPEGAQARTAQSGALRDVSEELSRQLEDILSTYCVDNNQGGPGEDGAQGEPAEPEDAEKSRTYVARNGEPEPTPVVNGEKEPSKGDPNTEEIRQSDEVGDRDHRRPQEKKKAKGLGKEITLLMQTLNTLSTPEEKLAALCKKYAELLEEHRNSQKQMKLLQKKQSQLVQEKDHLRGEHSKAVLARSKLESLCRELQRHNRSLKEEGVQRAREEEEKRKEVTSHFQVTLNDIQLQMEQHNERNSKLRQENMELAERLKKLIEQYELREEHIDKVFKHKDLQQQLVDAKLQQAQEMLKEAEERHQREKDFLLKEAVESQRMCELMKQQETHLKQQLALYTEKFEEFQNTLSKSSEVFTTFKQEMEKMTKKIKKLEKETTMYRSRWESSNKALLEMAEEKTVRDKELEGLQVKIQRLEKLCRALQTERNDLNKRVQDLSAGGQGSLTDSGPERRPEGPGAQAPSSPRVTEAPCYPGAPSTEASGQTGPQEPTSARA
Consider W337R, for which the “effect of a mutation on the interaction” value was “disrupting interaction strength”.

In the next assay the parent is B2. As to conditions: with txlna_human TXLNA.
Target sequence in this assay (P40222 whole entry): as above
For P389L, the “effect of a mutation on the interaction” value is reported as “with no effect”.

Another assay covers variants of B2. The following applies: with 2a5d_human PPP2R5D.
On to P389L, for which the “effect of a mutation on the interaction” value is reported as “with no effect”.

The variants in a further assay derive from B2. The following applies: with ccnh_human CCNH.
As for P389L, the “effect of a mutation on the interaction” value is recorded as “with no effect”.

In the next assay the parent is B2. As to conditions: with 2a5d_human PPP2R5D. This is another data set of the same source.
As for L330F, the “effect of a mutation on the interaction” value was “disrupting interaction strength”.

The variants in the next assay derive from B2. As to conditions: with ccnh_human CCNH. This is another data set of the same source.
Consider L330F, for which the “effect of a mutation on the interaction” value is on record as “disrupting interaction strength”.
